Numbered stars: 1 amine (or outer) side, 2 acyl side, 3 side chain; on linkers, the order of the positions; unused ones are H or OH. Bridge positions count the residues as written; N and C are the ends. Side chains are listed from the residue outwards. Ends that are not written are not given here. * marks the point of attachment. C20 diacid = O=C(O)CCCCCCCCCCCCCCCCCCC(=O)*; γGlu = O=C(O)[C@H](CCC(=O)[*:2])N[*:1]
T1: human amylin 3(a) receptor (human calcitonin receptor co-expressed with RAMP-3) (human, UniProt P30988 25-474; O60896 24-148, limits assumed)
T1 sequence (looked up) 1: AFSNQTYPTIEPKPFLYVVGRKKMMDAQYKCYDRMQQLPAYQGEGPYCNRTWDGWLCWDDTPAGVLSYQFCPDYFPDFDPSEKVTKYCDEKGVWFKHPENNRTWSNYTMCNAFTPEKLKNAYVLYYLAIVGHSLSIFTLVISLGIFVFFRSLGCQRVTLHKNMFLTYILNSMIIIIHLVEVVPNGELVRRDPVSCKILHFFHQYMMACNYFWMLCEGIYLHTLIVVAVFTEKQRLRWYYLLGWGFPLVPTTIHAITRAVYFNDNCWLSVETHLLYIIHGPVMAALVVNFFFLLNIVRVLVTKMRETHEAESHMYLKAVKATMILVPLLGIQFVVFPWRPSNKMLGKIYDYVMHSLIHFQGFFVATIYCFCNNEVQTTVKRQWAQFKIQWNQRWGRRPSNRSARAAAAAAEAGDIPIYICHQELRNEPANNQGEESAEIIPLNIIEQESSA
T1 sequence (looked up) 2: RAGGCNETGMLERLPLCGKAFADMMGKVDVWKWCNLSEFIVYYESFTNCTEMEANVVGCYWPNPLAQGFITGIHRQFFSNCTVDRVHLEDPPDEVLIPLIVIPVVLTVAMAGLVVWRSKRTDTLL

B1: N^ε1-[(4S)-4-carboxy-4-(19-carboxynonadecanoylamino)butanoyl]-[Arg17,Pro21,Pro27,His34]-h-amylin (peptide)
peptide: K([γGlu-C20 diacid])CNTATCATQRLANFLRHSSPNFGAIPSSTNVGHNTY-NH2
modifications: disulfide 2-7; N-terminus assumed
SMILES: CC[C@H](C)[C@H](NC(=O)[C@H](C)NC(=O)CNC(=O)[C@H](Cc1ccccc1)NC(=O)[C@H](CC(N)=O)NC(=O)[C@@H]1CCCN1C(=O)[C@H](CO)NC(=O)[C@H](CO)NC(=O)[C@H](Cc1c[nH]cn1)NC(=O)[C@H](CCCNC(=N)N)NC(=O)[C@H](CC(C)C)NC(=O)[C@H](Cc1ccccc1)NC(=O)[C@H](CC(N)=O)NC(=O)[C@H](C)NC(=O)[C@H](CC(C)C)NC(=O)[C@H](CCCNC(=N)N)NC(=O)[C@H](CCC(N)=O)NC(=O)[C@@H](NC(=O)[C@H](C)NC(=O)[C@@H]1CSSC[C@H](NC(=O)[C@@H](N)CCCCNC(=O)CC[C@H](NC(=O)CCCCCCCCCCCCCCCCCCC(=O)O)C(=O)O)C(=O)N[C@@H](CC(N)=O)C(=O)N[C@@H]([C@@H](C)O)C(=O)N[C@@H](C)C(=O)N[C@@H]([C@@H](C)O)C(=O)N1)[C@@H](C)O)C(=O)N1CCC[C@H]1C(=O)N[C@@H](CO)C(=O)N[C@@H](CO)C(=O)N[C@H](C(=O)N[C@@H](CC(N)=O)C(=O)N[C@H](C(=O)NCC(=O)N[C@@H](Cc1c[nH]cn1)C(=O)N[C@@H](CC(N)=O)C(=O)N[C@H](C(=O)N[C@@H](Cc1ccc(O)cc1)C(N)=O)[C@@H](C)O)C(C)C)[C@@H](C)O
notes: also called compound 77
B2: N^ε1-[(4S)-4-carboxy-4-(19-carboxynonadecanoylamino)butanoyl]-[Arg17,Pro21,Pro27,His35]-h-amylin (peptide)
peptide: K([γGlu-C20 diacid])CNTATCATQRLANFLRHSSPNFGAIPSSTNVGSHTY-NH2
modifications: disulfide 2-7; N-terminus assumed
SMILES: CC[C@H](C)[C@H](NC(=O)[C@H](C)NC(=O)CNC(=O)[C@H](Cc1ccccc1)NC(=O)[C@H](CC(N)=O)NC(=O)[C@@H]1CCCN1C(=O)[C@H](CO)NC(=O)[C@H](CO)NC(=O)[C@H](Cc1c[nH]cn1)NC(=O)[C@H](CCCNC(=N)N)NC(=O)[C@H](CC(C)C)NC(=O)[C@H](Cc1ccccc1)NC(=O)[C@H](CC(N)=O)NC(=O)[C@H](C)NC(=O)[C@H](CC(C)C)NC(=O)[C@H](CCCNC(=N)N)NC(=O)[C@H](CCC(N)=O)NC(=O)[C@@H](NC(=O)[C@H](C)NC(=O)[C@@H]1CSSC[C@H](NC(=O)[C@@H](N)CCCCNC(=O)CC[C@H](NC(=O)CCCCCCCCCCCCCCCCCCC(=O)O)C(=O)O)C(=O)N[C@@H](CC(N)=O)C(=O)N[C@@H]([C@@H](C)O)C(=O)N[C@@H](C)C(=O)N[C@@H]([C@@H](C)O)C(=O)N1)[C@@H](C)O)C(=O)N1CCC[C@H]1C(=O)N[C@@H](CO)C(=O)N[C@@H](CO)C(=O)N[C@H](C(=O)N[C@@H](CC(N)=O)C(=O)N[C@H](C(=O)NCC(=O)N[C@@H](CO)C(=O)N[C@@H](Cc1c[nH]cn1)C(=O)N[C@H](C(=O)N[C@@H](Cc1ccc(O)cc1)C(N)=O)[C@@H](C)O)C(C)C)[C@@H](C)O
notes: also called compound 60
B3: N^ε1-[(4S)-4-carboxy-4-(19-carboxynonadecanoylamino)butanoyl]-[Arg17,Pro21,Pro27,Lys35]-h-amylin (peptide)
peptide: K([γGlu-C20 diacid])CNTATCATQRLANFLRHSSPNFGAIPSSTNVGSKTY-NH2
modifications: disulfide 2-7; N-terminus assumed
SMILES: CC[C@H](C)[C@H](NC(=O)[C@H](C)NC(=O)CNC(=O)[C@H](Cc1ccccc1)NC(=O)[C@H](CC(N)=O)NC(=O)[C@@H]1CCCN1C(=O)[C@H](CO)NC(=O)[C@H](CO)NC(=O)[C@H](Cc1c[nH]cn1)NC(=O)[C@H](CCCNC(=N)N)NC(=O)[C@H](CC(C)C)NC(=O)[C@H](Cc1ccccc1)NC(=O)[C@H](CC(N)=O)NC(=O)[C@H](C)NC(=O)[C@H](CC(C)C)NC(=O)[C@H](CCCNC(=N)N)NC(=O)[C@H](CCC(N)=O)NC(=O)[C@@H](NC(=O)[C@H](C)NC(=O)[C@@H]1CSSC[C@H](NC(=O)[C@@H](N)CCCCNC(=O)CC[C@H](NC(=O)CCCCCCCCCCCCCCCCCCC(=O)O)C(=O)O)C(=O)N[C@@H](CC(N)=O)C(=O)N[C@@H]([C@@H](C)O)C(=O)N[C@@H](C)C(=O)N[C@@H]([C@@H](C)O)C(=O)N1)[C@@H](C)O)C(=O)N1CCC[C@H]1C(=O)N[C@@H](CO)C(=O)N[C@@H](CO)C(=O)N[C@H](C(=O)N[C@@H](CC(N)=O)C(=O)N[C@H](C(=O)NCC(=O)N[C@@H](CO)C(=O)N[C@@H](CCCCN)C(=O)N[C@H](C(=O)N[C@@H](Cc1ccc(O)cc1)C(N)=O)[C@@H](C)O)C(C)C)[C@@H](C)O
notes: also called compound 35
B4: N^ε1-[(4S)-4-carboxy-4-(19-carboxynonadecanoylamino)butanoyl]-[His14,Arg17,Pro21,Pro27,Arg34]-h-amylin (peptide)
peptide: K([γGlu-C20 diacid])CNTATCATQRLAHFLRHSSPNFGAIPSSTNVGRNTY-NH2
modifications: disulfide 2-7; N-terminus assumed
SMILES: CC[C@H](C)[C@H](NC(=O)[C@H](C)NC(=O)CNC(=O)[C@H](Cc1ccccc1)NC(=O)[C@H](CC(N)=O)NC(=O)[C@@H]1CCCN1C(=O)[C@H](CO)NC(=O)[C@H](CO)NC(=O)[C@H](Cc1c[nH]cn1)NC(=O)[C@H](CCCNC(=N)N)NC(=O)[C@H](CC(C)C)NC(=O)[C@H](Cc1ccccc1)NC(=O)[C@H](Cc1c[nH]cn1)NC(=O)[C@H](C)NC(=O)[C@H](CC(C)C)NC(=O)[C@H](CCCNC(=N)N)NC(=O)[C@H](CCC(N)=O)NC(=O)[C@@H](NC(=O)[C@H](C)NC(=O)[C@@H]1CSSC[C@H](NC(=O)[C@@H](N)CCCCNC(=O)CC[C@H](NC(=O)CCCCCCCCCCCCCCCCCCC(=O)O)C(=O)O)C(=O)N[C@@H](CC(N)=O)C(=O)N[C@@H]([C@@H](C)O)C(=O)N[C@@H](C)C(=O)N[C@@H]([C@@H](C)O)C(=O)N1)[C@@H](C)O)C(=O)N1CCC[C@H]1C(=O)N[C@@H](CO)C(=O)N[C@@H](CO)C(=O)N[C@H](C(=O)N[C@@H](CC(N)=O)C(=O)N[C@H](C(=O)NCC(=O)N[C@@H](CCCNC(=N)N)C(=O)N[C@@H](CC(N)=O)C(=O)N[C@H](C(=O)N[C@@H](Cc1ccc(O)cc1)C(N)=O)[C@@H](C)O)C(C)C)[C@@H](C)O
notes: also called compound 85
B5: N^ε1-[(4S)-4-carboxy-4-(19-carboxynonadecanoylamino)butanoyl]-[His14,Arg17,Pro21,Pro27,His35]-h-amylin (peptide)
peptide: K([γGlu-C20 diacid])CNTATCATQRLAHFLRHSSPNFGAIPSSTNVGSHTY-NH2
modifications: disulfide 2-7; N-terminus assumed
SMILES: CC[C@H](C)[C@H](NC(=O)[C@H](C)NC(=O)CNC(=O)[C@H](Cc1ccccc1)NC(=O)[C@H](CC(N)=O)NC(=O)[C@@H]1CCCN1C(=O)[C@H](CO)NC(=O)[C@H](CO)NC(=O)[C@H](Cc1c[nH]cn1)NC(=O)[C@H](CCCNC(=N)N)NC(=O)[C@H](CC(C)C)NC(=O)[C@H](Cc1ccccc1)NC(=O)[C@H](Cc1c[nH]cn1)NC(=O)[C@H](C)NC(=O)[C@H](CC(C)C)NC(=O)[C@H](CCCNC(=N)N)NC(=O)[C@H](CCC(N)=O)NC(=O)[C@@H](NC(=O)[C@H](C)NC(=O)[C@@H]1CSSC[C@H](NC(=O)[C@@H](N)CCCCNC(=O)CC[C@H](NC(=O)CCCCCCCCCCCCCCCCCCC(=O)O)C(=O)O)C(=O)N[C@@H](CC(N)=O)C(=O)N[C@@H]([C@@H](C)O)C(=O)N[C@@H](C)C(=O)N[C@@H]([C@@H](C)O)C(=O)N1)[C@@H](C)O)C(=O)N1CCC[C@H]1C(=O)N[C@@H](CO)C(=O)N[C@@H](CO)C(=O)N[C@H](C(=O)N[C@@H](CC(N)=O)C(=O)N[C@H](C(=O)NCC(=O)N[C@@H](CO)C(=O)N[C@@H](Cc1c[nH]cn1)C(=O)N[C@H](C(=O)N[C@@H](Cc1ccc(O)cc1)C(N)=O)[C@@H](C)O)C(C)C)[C@@H](C)O
notes: also called compound 66

target: T1, human amylin 3(a) receptor (human …); experiment: cell-based or functional assay

First: B1
Second: B2
The “Ratio hCT/hAmylin funct. (hCTR EC50 over hAmylin-R EC50)” value of the first is higher: 37.3 for the first, 15.3 for the second.

Compared with B3, B4 is higher in “Ratio hCT/hAmylin funct. (hCTR EC50 over hAmylin-R EC50)” value: 15 for the first, 26.6 for the second.

For B5, the “Ratio hCT/hAmylin funct. (hCTR EC50 over hAmylin-R EC50)” value was 20.1.

First: B1
Second: B2
The “hAmylin-R funct. EC50 (pM)” value of the first is lower: 145 pM for the first, 351 pM for the second.

Compared with B3, B4 is lower in “hAmylin-R funct. EC50 (pM)” value: 364 pM for the first, 146 pM for the second.

B5 was tested, and the “hAmylin-R funct. EC50 (pM)” value was 27 pM.

From patent US20140087995A1 (published 2014)
